Data published in patent US20050074854A1 (TRIPEP, published 2005).

Target: gp120 of HIV-1 IIIB (on virus) (HIV-1 IIIB)
Assay: cell-based or functional assay

KILGNQGSFLTKGPS [CD4 peptide Seq. Id. No. 6 without the coupled sugar]
< 0.3 fraction neutralized (0.3 = 30%): neutralization of HIV-1 IIIB (reduction of syncytia/PFU, U87/CD4 cells); CD4 peptide alone, 0.1 ug/ml | neutralization of HIV-1 IIIB (reduction of syncytia/PFU, U87/CD4 cells); CD4 peptide alone, 1 ug/ml | neutralization of HIV-1 IIIB (reduction of syncytia/PFU, U87/CD4 cells); CD4 peptide alone, 10 ug/ml

QFHWKNSNQIKILGN [CD4 peptide Seq. Id. No. 4 without the coupled sugar]
< 0.3 fraction neutralized (0.3 = 30%): neutralization of HIV-1 IIIB (reduction of syncytia/PFU, U87/CD4 cells); CD4 peptide alone, 0.1 ug/ml | neutralization of HIV-1 IIIB (reduction of syncytia/PFU, U87/CD4 cells); CD4 peptide alone, 1 ug/ml | neutralization of HIV-1 IIIB (reduction of syncytia/PFU, U87/CD4 cells); CD4 peptide alone, 10 ug/ml

NSNQIKILGNQGSFL [CD4 peptide Seq. Id. No. 5 without the coupled sugar]
< 0.3 fraction neutralized (0.3 = 30%): neutralization of HIV-1 IIIB (reduction of syncytia/PFU, U87/CD4 cells); CD4 peptide alone, 0.1 ug/ml | neutralization of HIV-1 IIIB (reduction of syncytia/PFU, U87/CD4 cells); CD4 peptide alone, 1 ug/ml | neutralization of HIV-1 IIIB (reduction of syncytia/PFU, U87/CD4 cells); CD4 peptide alone, 10 ug/ml

QGSFLTKGPSKLNDR [CD4 peptide Seq. Id. No. 7 without the coupled sugar]
< 0.3 fraction neutralized (0.3 = 30%): neutralization of HIV-1 IIIB (reduction of syncytia/PFU, U87/CD4 cells); CD4 peptide alone, 0.1 ug/ml | neutralization of HIV-1 IIIB (reduction of syncytia/PFU, U87/CD4 cells); CD4 peptide alone, 1 ug/ml | neutralization of HIV-1 IIIB (reduction of syncytia/PFU, U87/CD4 cells); CD4 peptide alone, 10 ug/ml
